Measurements from patent US20230235005A1 (INHIBRX, published 2023).
Like-named read-outs stand apart in the source and are kept apart here.

T1: Histidine-tagged CD25 (UniProt P01589 22-217, limits assumed)
T1 construct: Immobilized in Biolayer Interferometry (ForteBio); not shown: histidine tag
T1 sequence (looked up): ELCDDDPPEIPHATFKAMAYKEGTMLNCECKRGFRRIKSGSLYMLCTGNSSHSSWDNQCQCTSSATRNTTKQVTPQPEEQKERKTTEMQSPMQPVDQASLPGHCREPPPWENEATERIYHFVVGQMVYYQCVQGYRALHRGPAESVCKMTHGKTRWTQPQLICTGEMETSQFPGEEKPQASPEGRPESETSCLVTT

T2: IL-2 receptor overexpressed on HEK-Blue IL-2 reporter cells (InvivoGen) (UniProt P01589 22-272; P14784 27-551; P31785 23-369, limits assumed)
T2 sequence (looked up) 1: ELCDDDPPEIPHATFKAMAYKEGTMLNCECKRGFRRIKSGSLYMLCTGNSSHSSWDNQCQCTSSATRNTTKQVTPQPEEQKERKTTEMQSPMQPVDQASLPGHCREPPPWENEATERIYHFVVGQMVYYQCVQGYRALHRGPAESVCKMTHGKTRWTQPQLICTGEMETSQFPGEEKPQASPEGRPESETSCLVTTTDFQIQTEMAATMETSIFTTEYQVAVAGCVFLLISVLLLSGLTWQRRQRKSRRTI
T2 sequence (looked up) 2: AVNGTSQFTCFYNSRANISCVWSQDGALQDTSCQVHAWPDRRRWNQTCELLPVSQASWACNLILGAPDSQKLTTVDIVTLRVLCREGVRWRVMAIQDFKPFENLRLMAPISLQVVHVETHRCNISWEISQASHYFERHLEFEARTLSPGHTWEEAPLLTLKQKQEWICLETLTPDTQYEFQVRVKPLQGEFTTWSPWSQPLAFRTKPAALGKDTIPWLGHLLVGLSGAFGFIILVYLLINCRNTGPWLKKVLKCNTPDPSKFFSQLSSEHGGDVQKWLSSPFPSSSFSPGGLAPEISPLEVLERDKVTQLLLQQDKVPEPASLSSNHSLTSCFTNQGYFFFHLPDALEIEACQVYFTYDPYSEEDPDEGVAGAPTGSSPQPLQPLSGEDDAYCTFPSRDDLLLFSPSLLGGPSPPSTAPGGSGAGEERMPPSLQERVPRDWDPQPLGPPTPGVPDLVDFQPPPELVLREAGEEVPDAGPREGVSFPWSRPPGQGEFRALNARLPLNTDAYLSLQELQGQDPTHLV
T2 sequence (looked up) 3: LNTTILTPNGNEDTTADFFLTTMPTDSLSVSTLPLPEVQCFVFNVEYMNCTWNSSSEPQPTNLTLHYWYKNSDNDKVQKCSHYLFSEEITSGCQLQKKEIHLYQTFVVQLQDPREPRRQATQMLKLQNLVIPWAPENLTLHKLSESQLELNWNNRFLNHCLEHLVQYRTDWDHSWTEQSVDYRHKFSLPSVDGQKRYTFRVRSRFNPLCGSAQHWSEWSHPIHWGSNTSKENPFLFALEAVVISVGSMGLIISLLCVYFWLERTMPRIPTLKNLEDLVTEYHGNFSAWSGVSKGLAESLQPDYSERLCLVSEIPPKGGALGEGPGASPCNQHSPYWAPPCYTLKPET

B1: polypeptide comprising modified IL-2 (T3A, H16A, E61R, P65R, D84S, C125S) fused to the C-terminus of a PD-1-binding VHH (other, not shown: a dimerising Fc or GST; small tags and cut ends)
chain: APASSSTKKTQLQLEALLLDLQMILNGINNYKNPKLTRMLTFKFYMPKKATELKHLQCLERELKRLEEVLNLAQSKNFHLRPRSLISNINVIVLELKGSETTFMCEYADETATIVEFLNRWITFSQSIISTLT
B2: polypeptide comprising modified IL-2 (T3A, H16A, E61R, P65R, D84Y, C125S) fused to the C-terminus of a CD8a-binding VHH (protein, part only; not given: CD8a-binding VHH and any linker or Fc, part only)
chain, part: APASSSTKKTQLQLEALLLDLQMILNGINNYKNPKLTRMLTFKFYMPKKATELKHLQCLERELKRLEEVLNLAQSKNFHLRPRYLISNINVIVLELKGSETTFMCEYADETATIVEFLNRWITFSQSIISTLT
B3: polypeptide comprising modified IL-2 (T3A, H16A, P65R, D84S, I114F, C125S) fused to the C-terminus of a PD-1-binding VHH (other, not shown: a dimerising Fc or GST; small tags and cut ends)
chain: APASSSTKKTQLQLEALLLDLQMILNGINNYKNPKLTRMLTFKFYMPKKATELKHLQCLEEELKRLEEVLNLAQSKNFHLRPRSLISNINVIVLELKGSETTFMCEYADETATFVEFLNRWITFSQSIISTLT
B4: polypeptide comprising modified IL-2 (T3A, H16A, F42R, P65R, D84S, C125S) fused to the C-terminus of a PD-1-binding VHH (other, not shown: a dimerising Fc or GST; small tags and cut ends)
chain: APASSSTKKTQLQLEALLLDLQMILNGINNYKNPKLTRMLTRKFYMPKKATELKHLQCLEEELKRLEEVLNLAQSKNFHLRPRSLISNINVIVLELKGSETTFMCEYADETATIVEFLNRWITFSQSIISTLT
B5: polypeptide comprising modified IL-2 (T3A, H16A, K43E, Y45R, P65R, D84S, C125S) fused to the C-terminus of a PD-1-binding VHH (other, not shown: a dimerising Fc or GST; small tags and cut ends)
chain: APASSSTKKTQLQLEALLLDLQMILNGINNYKNPKLTRMLTFEFRMPKKATELKHLQCLEEELKRLEEVLNLAQSKNFHLRPRSLISNINVIVLELKGSETTFMCEYADETATIVEFLNRWITFSQSIISTLT
B6: polypeptide comprising modified IL-2 (T3A, H16A, K43E, P65R, D84S, C125S) fused to the C-terminus of a PD-1-binding VHH (other, not shown: a dimerising Fc or GST; small tags and cut ends)
chain: APASSSTKKTQLQLEALLLDLQMILNGINNYKNPKLTRMLTFEFYMPKKATELKHLQCLEEELKRLEEVLNLAQSKNFHLRPRSLISNINVIVLELKGSETTFMCEYADETATIVEFLNRWITFSQSIISTLT
B7: polypeptide comprising modified IL-2 (T3A, H16A, P65R, D84S, C125S) fused to the C-terminus of a PD-1-binding VHH (other, not shown: a dimerising Fc or GST; small tags and cut ends)
chain: APASSSTKKTQLQLEALLLDLQMILNGINNYKNPKLTRMLTFKFYMPKKATELKHLQCLEEELKRLEEVLNLAQSKNFHLRPRSLISNINVIVLELKGSETTFMCEYADETATIVEFLNRWITFSQSIISTLT
B8: polypeptide comprising modified IL-2 (T3A, H16A, R38A, P65R, D84S, C125S) fused to the C-terminus of a PD-1-binding VHH (other, not shown: a dimerising Fc or GST; small tags and cut ends)
chain: APASSSTKKTQLQLEALLLDLQMILNGINNYKNPKLTAMLTFKFYMPKKATELKHLQCLEEELKRLEEVLNLAQSKNFHLRPRSLISNINVIVLELKGSETTFMCEYADETATIVEFLNRWITFSQSIISTLT
B9: polypeptide comprising modified IL-2 (T3A, H16A, Δ42, P65R, D84S, C125S) fused to the C-terminus of a PD-1-binding VHH (other, not shown: a dimerising Fc or GST; small tags and cut ends)
chain: APASSSTKKTQLQLEALLLDLQMILNGINNYKNPKLTRMLTKFYMPKKATELKHLQCLEEELKRLEEVLNLAQSKNFHLRPRSLISNINVIVLELKGSETTFMCEYADETATIVEFLNRWITFSQSIISTLT
notes: also called IL-2-T3A-H16A-ΔF42-P65R-D84S-C125S

Experiments:
Histidine-tagged CD25 = target: T1, Histidine-tagged CD25; experiment: Biolayer Interferometry (ForteBio), immobilized His-tagged CD25
Description: Polypeptides comprising a modified IL-2 fused to the C-terminus of a PD-1 binding VHH and control polypeptides were tested for binding to CD25 using Biolayer Interferometry (ForteBio).

[1] = target: T2, IL-2 receptor overexpressed on HEK-Blue …; experiment: cell-based or functional assay
[2] = target: T3, PD-1 expressed on modified HEK-Blue IL-2 reporter cell clones (UniProt Q15116 25-288, limits assumed); experiment: cell-based or functional assay
[3] = target: IL-2 receptor together with PD-1 on HEK-Blue IL-2 reporter cells expressing PD-1 (UniProt P01589); experiment: cell-based or functional assay
[4] = target: trimeric IL-2 receptor on HEK-Blue IL-2 reporter cells (UniProt P01589); experiment: cell-based or functional assay
[5] = target: trimeric IL-2 receptor (CD25, CD122, CD132) on HEK-Blue IL-2 reporter cells (UniProt P01589); experiment: cell-based or functional assay
[6] = target: T2, IL-2 receptor overexpressed on HEK-Blue …; experiment: cell-based or functional assay; remark: listed apart in the source
[7] = target: T3, PD-1 expressed on modified HEK-Blue …; experiment: cell-based or functional assay; remark: listed apart in the source
[8] = target: T2, IL-2 receptor overexpressed on HEK-Blue …; experiment: cell-based or functional assay; remark: listed apart in the source
[9] = target: T3, PD-1 expressed on modified HEK-Blue …; experiment: cell-based or functional assay; remark: listed apart in the source
[10] = target: T2, IL-2 receptor overexpressed on HEK-Blue …; experiment: cell-based or functional assay; remark: listed apart in the source
[11] = target: T3, PD-1 expressed on modified HEK-Blue …; experiment: cell-based or functional assay; remark: listed apart in the source
[12] = target: T2, IL-2 receptor overexpressed on HEK-Blue …; experiment: cell-based or functional assay; remark: listed apart in the source
[13] = target: T3, PD-1 expressed on modified HEK-Blue …; experiment: cell-based or functional assay; remark: listed apart in the source
[14] = target: T3, PD-1 expressed on modified HEK-Blue …; experiment: cell-based or functional assay; remark: listed apart in the source
[15] = target: T2, IL-2 receptor overexpressed on HEK-Blue …; experiment: cell-based or functional assay; remark: listed apart in the source
[16] = target: T3, PD-1 expressed on modified HEK-Blue …; experiment: cell-based or functional assay; remark: listed apart in the source
[17] = target: T2, IL-2 receptor overexpressed on HEK-Blue …; experiment: cell-based or functional assay; remark: listed apart in the source

IL-2 receptor together with PD-1 on HEK-Blue IL-2 reporter cells expressing PD-1, sequence (Q15116 25-288 limits assumed): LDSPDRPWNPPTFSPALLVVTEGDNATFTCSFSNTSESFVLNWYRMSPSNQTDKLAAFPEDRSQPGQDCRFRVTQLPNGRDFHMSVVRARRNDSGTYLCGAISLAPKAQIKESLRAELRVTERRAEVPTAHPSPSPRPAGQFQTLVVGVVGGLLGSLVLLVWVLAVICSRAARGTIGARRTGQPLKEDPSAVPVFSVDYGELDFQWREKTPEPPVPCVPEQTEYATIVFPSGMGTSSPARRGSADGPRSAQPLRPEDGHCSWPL
T3 sequence (Q15116 25-288 limits assumed): as above

Binder	binding result (Histidine-tagged CD25)	EC50 (nM), HEK-Blue IL-2 reporter cells lacking PD-1 [1] [nM]	EC50 (nM), IL-2 reporter cells expressing PD-1 [2] [nM]	other results
B1	no binding (tested: 300 nM)	3.2	0.002	PD-1 Targeted EC50 [3]: 0.002 nM; PD-1 Window [3]: 1570; Non-targeted EC50 [4]: 3.18 nM
B2	–	–	–	CD8a Targeted EC50, IL-2 reporter cells expressing CD8a (secreted alkaline phosphatase) [5]: 0.011 nM; Non-targeted EC50, HEK-Blue IL-2 reporter cells lacking PD-1, NKp46 and CD8a (secreted alkaline phosphatase) [5]: 4.51 nM
B3	no binding (tested: 300 nM)	1.4	0.002	–
B4	–	2.1	0.003	–
B5	no binding (tested: 300 nM)	1.5	0.002	–
B6	no binding (tested: 300 nM)	1.1	0.001	–
B7	–	0.9	0.001	EC50 (nM), HEK-Blue IL-2 reporter cells lacking PD-1 [6]: 0.9 nM; EC50 (nM), HEK-Blue IL-2 + PD-1 [7]: 0.003 nM; EC50 (nM), HEK-Blue IL-2 [8]: 0.3 nM; EC50 (nM), HEK-Blue IL-2 + PD-1 [9]: 0.001 nM; EC50 (nM), HEK-Blue IL-2 [10]: 0.512 nM; EC50 (nM), HEK-Blue IL-2 + PD-1 [11]: 0.001 nM; EC50 (nM), HEK-Blue IL-2 [12]: 0.512 nM; EC50 (nM), IL-2 reporter cells expressing PD-1 [13]: 0.001 nM; EC50 (nM), HEK-Blue IL-2 + PD-1 [14]: 0.003 nM; EC50 (nM), HEK-Blue IL-2 [15]: 0.3 nM; EC50 (nM), HEK-Blue IL-2 + PD-1 [16]: 0.001 nM; EC50 (nM), HEK-Blue IL-2 [17]: 0.512 nM
B8	no binding (tested: 300 nM)	2	0.002	PD-1 Targeted EC50 [3]: 0.002 nM; PD-1 Window [3]: 978; Non-targeted EC50 [4]: 1.97 nM
B9	no binding (tested: 300 nM)	4.2	0.005	–
